In the nanobody polyreactivity screen of Harvey et al. (2022):

Test: yeast display, Sf9 membrane polyspecificity reagent, FACS + sequencing; frameworks hold sequencing errors
Summary of the method: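 After 36–48 hours of galactose induction, yeast (Saccharomyces cerevisiae BJ5465) displaying a synthetic nanobody library were stained at 4 °C for 1 hour with 10% biotinylated, detergent-solubilized Sf9 membrane reagent. Streptavidin microbeads enriched the stained cells before FACS sorting into low and high (top ~1%) gates on anti-HA and streptavidin fluorescence. Each clone's polyreactivity label reflects its gate of origin.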

Sequence	polyreactivity (PSR sort gate)
QVQLVESRGGLVQAGGSLRLSCPASGFTFVNYAMGWYRQAPGKERELVAAIRRSGSRTYYADSVKGRFTISRDNAKNTVYLQMNSLKPEVTAVYYCNAPVVYFWPLNFDYWGQGTQVTVSS	low polyreactivity
QVQLVESGGGLVQAGGSLRLSCAASGFTFYRYALGWYRQAPGKERELVAAISQRGGTTYYADSVKGRFTISRDNAKNTVYLQMNSLKPEDTAVYYCAKDRYYYPGNYWGQGTQVTVSS	high polyreactivity
QVQLVDSGGGLVQAGGSLLLICAASGSTIPRNAMGWYRQAPGKERELVAAITSGGSTNYADSVKGRFTISRDNAKNTVYLQMNSLKPEDTAVYYCAADEQVNTQYVVWGDYWGHGTQVTVSS	low polyreactivity
QVQLVESGGGLVQAGGSLRLICAASGSTFPTYAMGWYRQAPGKERELVAAISTRGGSTYYADSVKGRFTISRDNAKNTVYLQMNSVKPEDTAVYYCATGKTVGRYHYEYWGQGTQVTVSS	low polyreactivity
QVQLVESGGGLVQAGGSLRLICAAAGRIVSYYTMGWYRQAPGKERELVAAISSGGSTNYADSVKGRFTISRDNAKNTVYLQMNSLKPEDTAVYYCAVRCGRRNYDRPAFGYWGQGTQVTVSS	high polyreactivity
QVQLVESGGGLVQAGGSLRLSCAASGRIFTKNTMGWYRQAPAQERELVAAIRSRAGSTYYADSVKGRFTISRDNEKNTVYLQMNSLKPEDTAVYYCAVRWFRSVDFDYWGQGTQVTVSS	low polyreactivity
QVQLVESGGGLVQAGGSLRLSCAASGLIFDVYAMGWYRQAPGKERELVAVISRGGSTNYADSVKGRFTISRDNANNTVYLQMNSLKPEDTAVYYCAAGLVVSYPQNNYSVSFYARGYWGQGTQVTVSS	high polyreactivity
QVQLVESGGGLVQAGGSLRLSCAASGRTFRAYAMGWYRQAPGKERELVASISRGGSTKYADSVKGRFTISRDNAKNTVYLQMNSVKPEDTAVYYCAADRLRDGVDYWGQGTQVTVSS	low polyreactivity
QVQLVESGGGLVQAGGSLRLSCAASGFTFARYTMGWYRQEPGKERELVAAISSRGSSTYYADSVKGRFTISRDNAKNTVYLQMNSLKPEDTAVYYCAAPPRYGYDYWGQGTQVTVSS	high polyreactivity
QVQLVESGGGLVQAGGSLRLSCAASGSTFGVNAMGWYRQAPGKERELVAAIDADGGITYYADSVKGRFTISRDNAKNTVYLQMNILKPEDTAVYYCAARVAVYFSYGSPYWYEYDYWGQGTQVTVSS	low polyreactivity
QVQLVESGGGLVQAGGSLRLSCAASGRTIGSNVMGWYRQAPGKERELVAAITYSGVSTYADSVKGRFTISRDNAKNTVYLQINSLKPEDTAVYYCNAYPTTYYQQYDYWGQGTQVTVSS	low polyreactivity
QVQLVESGGGLVQAGGSLRLSCAASGRIFVRNAMGWYRQAPGKERELVASISSSSGSTYYADSVKGRFTISRDNAKNTVYIQMNSLKPEDTAVYYCNAGYHFVHWPHVKHKKFDYWGQGTQVTVSS	low polyreactivity
QVQLVESGGGLVQAGGSLRLSCAASGRTFRYYALGWYRQAPGKERELVAAITSSGDSTYYADSVKGRFTISRDNAKNTVYLQMHSLKQEDTAVYYCADGQPLFYDAEYGYWGQGTQVTVSS	low polyreactivity
QVQLVESGGGLVQAGGRLRLSCAASGFTFSRNTLGWYRQAPGKERELVARITKRGGTTYYADSVKGRFTISRDNAKNTVYLQMNSLKPEDTAVYYCATVGQPSYRAPDGFNYWGQGTQVTVSS	high polyreactivity
QVQLVESGGGLVQAGGSLRLSCAASGSTFRTNVMGWYRQAPGKERELVAAITKRGSITYYADSVKGRFTISRDNAKNTVYLQMNSLKPEDTAVYYCAARKVAVRGYGYWGQGTQVTVSS	high polyreactivity
QVQLVESGGVLVQAGGRLRLSCAASVFGRYAMGWYRQAPGKEREMVARISSSCGSTHYADSVKGRFTISRDNAKNTVYLEMNSLKPEDTAVYYCAARSYDTYWWYGYWGQGTQVTVSS	high polyreactivity
QVQLVESGGGLVQAGGSLRLSSAASGLILYSYAMGWYRQAPGKERELVADISSGGITNYADSVKGRFTISRDNAKNTVYLQMNSLKPEDTAVYYCAADTRPVNYILYDYWGQGTQVTVSS	low polyreactivity
QVQLVESGGGLVQAGGSLRLSCAASGFIFPFYAMGWYRQAPGKERELGASITWSGSTYADSVKGRFTISRDNAKNTVYLQMNSLKPEDTAVYYCNTDPRSVVGWYAYWGQGTQVTVSS	low polyreactivity
QVQLVESGGGLVQAGGSQRLSCAASGRTFRGNAMGWYRQAPGKERELVATINSGGSTNYADSVKGRFTISRDKAKNTVYLQMNSLIPEDTAVYYCAAVKYFRWKYNYWGQGTQVTVSS	high polyreactivity
QVQLVESGGGLVQAGGSLRLSCAAAGRIFVQYDMGWYRQAAGKERELVAAIIDSGDITYYADSVKGRYTSSRDNAKNTVYLQMNSLKPEDTAVYDCAASAAYYGFYKSVTYDYWGQGTQVTVSS	low polyreactivity
QVQLVESRGGLVQAGGSLRLSCAASGRTFDGYVMGWYRQAPGKERELVAAISWGGSYTYYADSVKGRFTISRDNAKNTVYLQMNSLKPEDTAVYYCAKDTVPNVRDYWGQGTQVTVSS	low polyreactivity
QVHLVESGGGLVQAGGSLRLSCAASGSTFFLYAMGWYRQAPGKERELVAAISSGGSTYYADSVKGRFTISRDNAKNTVYLQMTRLKPEDTAVYYCARDRIDTTDRTWRGDYWGQGTQATVSS	low polyreactivity

Sequence	polyreactivity (PSR sort gate)
QVQLVESGGGLVQAGGSLRLSCAASGYIFTSYAMGWYRQAPGKERELVATITTGGSTYYADSVKGRFTISRDNAKNTVYLQMNSLKPEDTAVYYCNAVLHGWYDYWGQGTQVTVSS	low polyreactivity
QVQLGESGGGLVQAGGSLRVICAASGFIFRDYAMGWYIQAPGKERELFAAIRSTTGSTYYADSVKGRFTISRDNSKNTVYLQMNSLKPEDTAVYYCAAAYPFYADMDYSGQGTQVTVSS	low polyreactivity
QVQLVESGGGLDQAGGRLRLSCAASGITVGYNDMGRYRQARGKERELVAAINRGASTNYADSVKGRFTISRDNAKNTVYFQMNCLKPEDTAVYYCNADHRDTFIWVGLPHMDYWGQGTQVTVSS	low polyreactivity
QVQLVESGGGLVQAGGSLRLSCAASGRTFVTYAMGWYRQAPGKEREFVAAISRNGGSTYYADSVKGRFTISRDNAKNTVYLQMNSLKPEDTAVYYCAAYAYIFLDWGGYPYYLYEYDYWGQGTQVTVSS	low polyreactivity
QVKHVESGGGLVQAGGSLRLTCAASGRTFDRYARGWCRQAPGKDRQLVASISWTGGSPYYADSVKGRFTISRDNAKNTVYLQMNSLKPEVTAVYYCAVRFDYWGQGTQVTVSS	low polyreactivity
QVQLVDSGGGLVQAGGSLRLSCAASGRILYANAMGWYRQAPGKERELVAAIRYSDDSTYYADSVKGRFTISRDNAKNTVYLHMNSLKPEDTAVYYCNADYLRWDIWYWHGYDYWGQGTQVTVSS	high polyreactivity
QVQLVESGGGLVQAGGSLRLSCAASGSTFTVNGMGWYRQAPGKERELVASITWSGGSTYYADSVKGRFTISRDNAKNTVYLQMNSLKPEATAVYYCAADEKLYITGYDYWGQGTQVTVSS	low polyreactivity
QVQLVESGGGLVQAGGSLRLSCAASGFTFKGNAMGWYIQAPGKERELVATITQSAGYTYYADSVKGRFTISRDNAKNTVYLQLNSLKPEDTAVYYCNADPITLYYYSWYNYWGQGTQVTVSS	low polyreactivity
QVQLVESGGALVQAGGSLRLSCAASGFIFYSYAMGWYRHAPGKETELVAAITEDGDSTYYADSVKGRFTISRDNAKNTVYLQMNSLKPEDSAVYYCNTDLTFNGTSGDYDYWGQGTLVTVSS	low polyreactivity
QVQLVESGGGLVQAGGSLRVSCAASGRNFYYYAMGGYRQAPGKERELVAAINWSGGGTYYADSVKGRFTISRDNAKNTVYFQMNSLKPEDTAVYYCAAGFRYRYYWGQGTQVTVSS	high polyreactivity
QVQRVETGGGLVQAAGSLRLSCAASGRTFRNYAMGWYRQAPGKERELVAAIRSGVRTYYADSVKGRFTISRDNAKNTVYLQMNSVKPEDTAVYYCAVATGLLYKSHGYCGQGTQVTVSS	low polyreactivity
QVQLVESGGCLVQEGGSLRLSCPASGSIFDDYAMGWYRQAPGKERELVAAISDSCGSTYYADSVKGRFTISRDNAKNTVYLQMNSLNQEDTAVYYCNADRDDDYDYWGEGTQVTVSS	low polyreactivity
QVQLVESGGGLVQAGGSLRLSCAASGRTFSVYTMGWYREAPGQERELVAAISSTGRTNYADSVKGRFTISRDNAKNTVYLQMNSQKPEATAVYDCNAGVRNSYTRHALVTAYYLYYYWRQGTQVTVSS	high polyreactivity
QVQLVESGGGLVQAGGSLRLSCAASGSIFGRYAMGWYRQARGKERELVAAISWSGGSTYYADSVKGRFTISRDNAKNTVYLQMNSLKPEDTAVYYCAANYKYAYEYWGQGTQVTVSS	high polyreactivity
QDQHVESGGGLVQAGGSLRISSAASGSIYFYNAMGWYRQAPGQERELVAAITTRGGSTYYADSVKGRFTISRDNAKNTVYLQMNSLKPEDTAVYYCARSSRGKLDYWGQGTQVTVSS	low polyreactivity
QVQLVESGGGLVQAGGSLRLSCAATGFTIAWYTMGWYRQAPGKERELVAAISLNGGSKYYADSVKGRFTISRDNAKNTVYLQMNSLKPDDTAVYYCAKGYRWPYYPYDYWGQGTQVTVSS	low polyreactivity
QVQLVESGGGLVQAGGSLRLICDASGSTFERYALGWYRQAPGKERELVAAITWGGGSTNYADSVKGRFTISRDNEKNTVYLQMNSLNPEDTAVYYCRPLYLGGDYWGQGTQVTVSS	low polyreactivity
QVQLVESGGGLVQAGGSLRLSCAASGSTFGGYAMGWYRLAPGKERELVAAISSSGTSTYYADSVKGRFTISRDNAKNTVYLQMNSLKPEDTAVYYCATDFSFFSRFDYWGQGTQVTVSS	low polyreactivity
QVQLVESGGCLFQAGGSLRLSCAASGSTFYWYTMGWYRQAHGKERELVSTMTTVGRTNYADSVKGRFTISRDNAKNTVYLQMKSLKPEVTAVYYCAASKARWPRGGCKYYYWRQGTQVTVSS	high polyreactivity
QVQLVESGGGLVQAGGSHRLSCAASGSTFWGYTMRWYRQAPGKERELVAAITRSSGRTYYADSVKGRFTISRDNAKITVYLQMNSLKPEETAVYYCNAAAVGRRTWSPYDYWGQGTQVTVSS	high polyreactivity
QVQLVESGGGLVQAGGSLRLSCAASGSTFSVNAMGWYRQAPGKEREFVAAITGDGVTTYYADSVKGRFTISRDNAKNTVYLQMNSLKPEDTAVYYCAAEDIRQTTGYDYWGQGTQVTVSS	high polyreactivity
